Source: the supplement of paper PMC10724198
± gives the standard deviation of the averaged measurements.

How the values were obtained:
Saccharomyces cerevisiae [1] = experiment: protein stability index of tFT-peptide fusion (C-terminal peptide) (PSI (0-1 scale)); higher = more stable (slower turnover); settings: genetic background: wild type; temperature: 30 C
Saccharomyces cerevisiae [2] = experiment: as above
Protocol: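 MPS profiling in S. cerevisiae of the tFT-X12 degron library: putative degron peptides plus stable controls, 12 aa, fused to the C-terminus of a sfGFP-mCherry timer. Cells are FACS-sorted into 8 mCherry/sfGFP bins and deep-sequenced. PSI runs from 0 (unstable) to 1 (stable). Backgrounds are wild type, das1Δ and doa10Δ at 30 °C, and wild type, das1Δ, cdc34-1 and cdc53-1 at 37 °C; 2-3 technical replicates each.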

[3] = genetic background: cdc34-1, temperature: 37 C
[4] = genetic background: cdc53-1, temperature: 37 C
[5] = genetic background: das1 deletion, temperature: 30 C
[6] = genetic background: das1 deletion, temperature: 37 C
[7] = genetic background: doa10 deletion, temperature: 30 C
[8] = genetic background: wild type, temperature: 30 C
[9] = genetic background: wild type, temperature: 37 C
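Further: PSI is a weighted mean of sequencing reads over stability bins, variants kept only with over 10 reads, mCherry proximal and sfGFP distal, peptide attached via GGGS linker.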

Sequence	protein stability index (Saccharomyces cerevisiae [1])	protein stability index (Saccharomyces cerevisiae [2]; [3])	protein stability index (Saccharomyces cerevisiae [2]; [4])	protein stability index (Saccharomyces cerevisiae [2]; [5])	protein stability index (Saccharomyces cerevisiae [2]; [6])	protein stability index (Saccharomyces cerevisiae [2]; [7])	protein stability index (Saccharomyces cerevisiae [2]; [8])	protein stability index (Saccharomyces cerevisiae [2]; [9])
GTLSSSLIKSCA	0.52 ± 0.057	0.602 ± 0.036	0.616 ± 0.017	0.488 ± 0.027	0.637 ± 0.013	0.481 ± 0.01	0.499 ± 0.029	0.614 ± 0.0095
GTVRGDLSLWLC	0.349 ± 0.11	0.622 ± 0.047	0.745 ± 0.0076	0.681 ± 0.0076	0.765 ± 0.015	0.156 ± 0.012	0.17 ± 0.031	0.274 ± 0.023
GVGTFRLCVLLV	0.197 ± 0.02	0.233 ± 0.004	0.2473 ± 0.0021	0.273 ± 0.029	0.3697 ± 0.0013	0.156 ± 0.022	0.138 ± 0.0077	0.128 ± 0.0081
GVQVIWGWARVF	0.0923 ± 0.032	0.51 ± 0.14	0.595 ± 0.019	0.507 ± 0.042	0.654 ± 0.019	0.0987 ± 0.029	0.0712 ± 0.032	0.131 ± 0.036
GVVVWWCYFVFV	0.257 ± 0.03	0.181 ± 0.012	0.298 ± 0.034	0.183 ± 0.031	0.3631 ± 0.00064	0.161 ± 0.0072	0.161 ± 0.021	0.321 ± 0.0065
GWLFTFTCAFRV	0.479 ± 0.058	0.429 ± 0.01	0.441 ± 0.014	0.443 ± 0.027	0.482 ± 0.012	0.4984 ± 0.0014	0.428 ± 0.016	0.4672 ± 0.0025
GWRVWVQIIWGR	0.352 ± 0.028	0.316 ± 0.013	0.409 ± 0.0041	0.293 ± 0.027	0.441 ± 0.018	0.282 ± 0.0029	0.286 ± 0.02	0.40261 ± 8.5e-05
GYGAVHWWFWLF	0.31 ± 0.027	0.604 ± 0.052	0.6675 ± 0.0043	0.587 ± 0.04	0.7066 ± 0.006	0.1934 ± 0.0013	0.214 ± 0.026	0.3761 ± 0.0034
GYVCVGLVYSVA	0.337 ± 0.072	0.372 ± 0.041	0.411 ± 0.017	0.267 ± 0.038	0.463 ± 0.0037	0.216 ± 0.0035	0.249 ± 0.038	0.433 ± 0.0093
HCINYGRIQFCA	0.388 ± 0.051	0.596 ± 0.028	0.71 ± 0.05	0.596 ± 0.013	0.714 ± 0.024	0.245 ± 0.012	0.253 ± 0.034	0.532 ± 0.06
HEVHATVPNQIM	0.697 ± 0.011	0.688 ± 0.026	0.7487 ± 0.0024	0.638 ± 0.01	0.736 ± 0.0095	0.649 ± 0.018	0.653 ± 0.02	0.7114 ± 0.0045
HFRFSRYIRWVL	0.237 ± 0.013	0.619 ± 0.08	0.7004 ± 0.0021	0.653 ± 0.02	0.746 ± 0.0079	0.139 ± 0.0018	0.151 ± 0.016	0.332 ± 0.0057
HFSCLLIILGFC	0.331 ± 0.026	0.275 ± 0.01	0.395 ± 0.078	0.268 ± 0.04	0.448 ± 0.0081	0.216 ± 0.005	0.267 ± 0.023	0.459 ± 0.092
HIVWVLQRAFRG	0.509 ± 0.039	0.511 ± 0.058	0.516 ± 0.0086	0.493 ± 0.021	0.504 ± 0.02	0.506 ± 0.038	0.488 ± 0.016	0.485 ± 0.018
HLCVLWVLLLCF	0.333 ± 0.011	0.286 ± 0.032	0.323 ± 0.0031	0.26 ± 0.025	0.383 ± 0.011	0.289 ± 0.015	0.246 ± 0.019	0.368 ± 0.024
HLFDMFFFLLHV	0.441 ± 0.027	0.514 ± 0.047	0.5932 ± 0.0025	0.488 ± 0.022	0.611 ± 0.0073	0.343 ± 0.0048	0.33 ± 0.022	0.504 ± 0.01
HLGAAVYVFSVL	0.477 ± 0.006	0.664 ± 0.086	0.707 ± 0.019	0.551 ± 0.0072	0.705 ± 0.016	0.399 ± 0.071	0.424 ± 0.0089	0.64 ± 0.03
HMSAISLIGALA	0.519 ± 0.029	0.595 ± 0.051	0.575 ± 0.04	0.436 ± 0.06	0.595 ± 0.011	0.392 ± 0.0086	0.434 ± 0.02	0.5673 ± 0.0013
HNLYCKILQLCV	0.446 ± 0.0057	0.419 ± 0.013	0.49 ± 0.12	0.304 ± 0.049	0.497 ± 0.04	0.242 ± 0.017	0.294 ± 0.025	0.449 ± 0.03
HPPRSLTLASSS	0.127 ± 0.029	0.696 ± 0.039	0.75 ± 0.014	0.661 ± 0.012	0.754 ± 0.025	0.65 ± 0.019	0.6427 ± 0.0058	0.7137 ± 0.00092

Sequence	protein stability index (Saccharomyces cerevisiae [1])	protein stability index (Saccharomyces cerevisiae [2]; [3])	protein stability index (Saccharomyces cerevisiae [2]; [4])	protein stability index (Saccharomyces cerevisiae [2]; [5])	protein stability index (Saccharomyces cerevisiae [2]; [6])	protein stability index (Saccharomyces cerevisiae [2]; [7])	protein stability index (Saccharomyces cerevisiae [2]; [8])	protein stability index (Saccharomyces cerevisiae [2]; [9])
HRCLFPLEYLLI	0.473 ± 0.052	0.613 ± 0.055	0.72 ± 0.015	0.551 ± 0.021	0.701 ± 0.026	0.303 ± 0.022	0.344 ± 0.017	0.503 ± 0.018
HSLLLWLLVFFR	0.413 ± 0.036	0.441 ± 0.013	0.511 ± 0.01	0.388 ± 0.027	0.516 ± 0.0056	0.3609 ± 0.0034	0.367 ± 0.018	0.508 ± 0.012
HSVPPYPTPPPF	0.463 ± 0.002	0.668 ± 0.054	0.739 ± 0.0011	0.337 ± 0.041	0.616 ± 0.0097	0.302 ± 0.016	0.372 ± 0.016	0.586 ± 0.025
HVLLSSSASIVV	0.536 ± 0.058	0.623 ± 0.015	0.6613 ± 0.0046	0.534 ± 0.019	0.6449 ± 0.0028	0.534 ± 0.03	0.529 ± 0.026	0.63 ± 0.047
HYATLMSLRKVL	0.27 ± 0.047	0.6682 ± 0.0023	0.716 ± 0.036	0.64 ± 0.022	0.7219 ± 0.0017	0.128 ± 0.0077	0.137 ± 0.022	0.316 ± 0.032
IAYCDNGFLVVV	0.521 ± 0.077	0.636 ± 0.037	0.676 ± 0.028	0.548 ± 0.023	0.695 ± 0.019	0.539 ± 0.013	0.563 ± 0.012	0.652 ± 0.012
IDTSRAATLLPA	0.739 ± 0.012	0.675 ± 0.021	0.7136 ± 0.0016	0.606 ± 0.017	0.722 ± 0.011	0.611 ± 0.016	0.631 ± 0.028	0.7161 ± 0.0029
IFWAKRNLVRVT	0.363 ± 0.028	0.382 ± 0.0086	0.421 ± 0.011	0.307 ± 0.029	0.478 ± 0.0088	0.201 ± 0.0051	0.251 ± 0.025	0.402 ± 0.0096
IGKEKRMKVIQI	0.516 ± 0.065	0.65 ± 0.025	0.69 ± 0.022	0.624 ± 0.018	0.735 ± 0.019	0.433 ± 0.0078	0.477 ± 0.0096	0.615 ± 0.013
IKKKRNKKKMIM	0.505 ± 0.042	0.653 ± 0.093	0.727 ± 0.011	0.655 ± 0.026	0.731 ± 0.026	0.316 ± 0.035	0.322 ± 0.048	0.597 ± 0.013
IKPSVHILIRTL	0.21 ± 0.0069	0.544 ± 0.019	0.57 ± 0.017	0.446 ± 0.046	0.571 ± 0.02	0.118 ± 0.022	0.14 ± 0.0072	0.222 ± 0.0071
ILGDPHLALIFP	0.703 ± 0.022	0.689 ± 0.02	0.757 ± 0.012	0.657 ± 0.026	0.749 ± 0.018	0.652 ± 0.028	0.666 ± 0.021	0.7324 ± 0.0016
ILVYFQAHAIKI	0.129 ± 0.0092	0.1592 ± 0.00018	0.189 ± 0.015	0.0937 ± 0.022	0.199 ± 0.0036	0.0645 ± 0.012	0.0874 ± 0.027	0.202 ± 0.01
ISARPFLYSFRP	0.0266 ± 0.038	0.683 ± 0.01	0.7515 ± 0.0074	0.643 ± 0.034	0.7373 ± 0.0025	0.644 ± 0.027	0.644 ± 0.041	0.71009 ± 0.00017
ISFSLALSVSFS	0.49 ± 0.0052	0.5219 ± 0.0035	0.532 ± 0.014	0.502 ± 0.015	0.478 ± 0.029	0.567 ± 0.05	0.528 ± 0.011	0.469 ± 0.013
ISLSCRSFFCLS	0.507 ± 0.027	0.61 ± 0.033	0.68 ± 0.011	0.574 ± 0.018	0.6691 ± 0.0065	0.446 ± 0.015	0.462 ± 0.019	0.5854 ± 0.0049
ISLVLVVIEVQR	0.209 ± 0.027	0.0774 ± 0.045	0.285 ± 0.042	0.166 ± 0.042	0.316 ± 0.017	0.135 ± 0.0075	0.143 ± 0.024	0.249 ± 0.03
ISVFLFAFFFIP	0.356 ± 0.031	0.447 ± 0.0098	0.553 ± 0.024	0.395 ± 0.03	0.531 ± 0.013	0.275 ± 0.016	0.306 ± 0.012	0.425 ± 0.01
ISVQKRRAIEII	0.451 ± 0.013	0.586 ± 0.008	0.6379 ± 0.0021	0.496 ± 0.03	0.626 ± 0.0078	0.266 ± 0.008	0.305 ± 0.018	0.492 ± 0.03
